Experiments:
[1] = target: HA-tagged human CXCR2 expressed on L1.2 cells (human) (UniProt P25025); assay: radioligand binding; competition of increasing concentrations of unlabeled CXCL8 (pre-incubated with H292 or H575 culture supernatant, then Pefabloc SC) against [125I]-CXCL8 on L1.2 cells expressing HA-CXCR1 or HA-CXCR2; n = 6
[2] = target: HA-tagged human CXCR1 expressed on L1.2 cells (human) (UniProt P25024); assay: as above

Question: With “Recombinant human CXCL8, 72 aa form (CXCL8^1–72), intact (incubated with control H575 supernatant) (ligand)” as the substance, how does the IC50 [1] read?
Answer: 8.7 nM

Question: And the IC50 [2]?
Answer: 8.1 nM
